Consider seven molecules from patent publication US20250282879A1.

For test [1], the target named is recombinant cynomolgus monkey IL-31 (ECD with His Tag, Sino Biological) (cynomolgus monkey). The experiment in a line: SPR, IL-31-His captured, scFv analyte (30 and 10 nM). A general note: In SPR one partner is held on a chip, and binding of the other changes the refractive index at the surface.
Test [2] concerns the target recombinant human IL-31 protein (Peprotech) (human) (UniProt Q6EBC2). The experiment in a line: cell-based or functional assay.
Test [3] addresses recombinant cynomolgus monkey IL-31 (ECD with His Tag, Sino Biological) (cynomolgus monkey). Nature of the test: SPR, IL-31-His captured, scFv analyte, screening mode.
Test [4] shares this target. Nature of the test: SPR, IL-31-His captured, scFv analyte, full titration mode.
The target of test [5] is cynomolgus IL-4R-Fc (cynomolgus monkey (Macaca fascicularis)). The experiment in a line: SPR, capture setup, cynomolgus IL-4R-Fc captured.
Chain of cynomolgus IL-4R-Fc (cynomolgus monkey (Macaca fascicularis)) (chain, as listed by the source): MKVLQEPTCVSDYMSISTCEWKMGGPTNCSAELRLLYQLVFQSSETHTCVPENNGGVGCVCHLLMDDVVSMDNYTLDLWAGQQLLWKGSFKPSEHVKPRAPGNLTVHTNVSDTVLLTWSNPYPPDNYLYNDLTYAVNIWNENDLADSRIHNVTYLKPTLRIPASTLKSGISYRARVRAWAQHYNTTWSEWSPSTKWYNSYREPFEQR
Another test addresses Human IL-4R-Fc (human) (UniProt P24394). Nature of the test: SPR, hIL-4R-Fc captured, scFv analyte.
In test [6] the target is cynomolgus IL-4R ECD (cynomolgus monkey (Macaca fascicularis)). The experiment in a line: SPR, direct setup, cynomolgus IL-4R ECD immobilized.
Chain of cynomolgus IL-4R ECD (cynomolgus monkey (Macaca fascicularis)) (A0A2K5 entry or part of it limits assumed): as the sequence (chain, as listed by the source) above
Test [7] concerns the target marmoset IL-4R ECD (marmoset (Callithrix jacchus)) (UniProt Q0PIT7). The experiment in a line: SPR, direct setup, marmoset IL-4R ECD immobilized.
Test [8] addresses human IL-4R on cells (HEK-Blue IL-4/IL-13 cells, human PBMC, human whole blood) (human) (UniProt P24394). The experiment in a line: cell-based or functional assay.
The target of test [9] is recombinant cynomolgus monkey IL-31 (ECD with His Tag, Sino Biological) (cynomolgus monkey).
For test [10], the target named is recombinant human IL-31 protein (Peprotech) (human) (UniProt Q6EBC2).
Chain of recombinant human IL-31 protein (Peprotech) (human) (Q6EBC2 24-164 limits assumed): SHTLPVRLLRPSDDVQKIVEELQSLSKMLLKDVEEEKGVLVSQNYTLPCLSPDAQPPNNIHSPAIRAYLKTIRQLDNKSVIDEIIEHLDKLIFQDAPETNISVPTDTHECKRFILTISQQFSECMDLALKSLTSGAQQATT
For test [11] the target is unchanged. This is another data set of the same source.
The target is the same in test [12]. The source holds these as a separate data set.
The target is the same in test [13]. This is another data set of the same source.

Numbering of substitutions follows the chain as printed. Read-outs that look alike come from different tables or passages of the source.

Chain of marmoset IL-4R ECD (marmoset (Callithrix jacchus)) (Q0PIT7 entry or part of it limits assumed): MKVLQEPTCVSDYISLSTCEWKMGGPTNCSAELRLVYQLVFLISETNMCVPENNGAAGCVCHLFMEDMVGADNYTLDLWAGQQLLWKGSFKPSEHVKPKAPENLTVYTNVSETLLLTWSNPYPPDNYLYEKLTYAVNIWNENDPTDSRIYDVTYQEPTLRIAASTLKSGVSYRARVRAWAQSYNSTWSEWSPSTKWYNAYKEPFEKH

B1: PRO1900 (scFv, V domains shown)
VH: QSQLVESGGGRVQPGGSLRLSCAASGFSFSANYWICWVRQAPGKGLEWIVCIYIGSRADTYYAPWAKGRFTISKDNSKNTVYLQMNSLRAEDTATYFCARFSSGIYDLDRFFLWGQGTQVTVSS
V domain: AFQLTQSPSSLSASVGDRVTITCQASQSIDSWLAWYQQKPGKPPKLLIYQASKLASGVPSRFSGSGSGTDYTLTISSLQPEDFATYYCQTYYGGGHIGWGFGTGTKVTV
For orientation: Kd means the constant that tells how readily two partners part at equilibrium. By koff is commonly meant the rate constant with which the complex falls apart. A word on the kon: it is the second-order rate constant of association. Consider B1, for which, in test [1], the dissociation constant Kd came to 1.07 nM, the off-rate (koff) was determined as 0.000594 s⁻¹ and the kon was determined as 554000 M⁻¹ s⁻¹. Also, in test [2], the IC50, neutralization of hIL-31-induced signaling in IL-31RA/OSMR dimerization assay is 8.21 ng/mL and the rel. IC50 (IC50, BMS-981164/IC50, test sample) is 0.73.

B2: PRO1643 (scFv, V domains shown)
VH: B1 VH with R11L, T95V, Q119L
V domain: B1 V domain
For B2, the equilibrium dissociation constant (Kd) in test [3] came to 0.583 nM; in test [1], 1.17 nM; in test [4], 0.557 nM. In addition, the koff in test [3] came out at 0.000444 s⁻¹; in test [1], 0.000587 s⁻¹; in [4], 0.000426 s⁻¹. Besides, the association rate constant (kon) in test [3] worked out at 761000 M⁻¹ s⁻¹; in test [1], 501000 M⁻¹ s⁻¹; in [4], 764000 M⁻¹ s⁻¹.

B3: PRO1903 (scFv, V domains shown)
VH: B1 VH with R11L, T95V, Q119L
V domain: B1 V domain with D30E
Consider B3, for which, in test [1], the Kd is 1.39 nM, the off-rate constant (koff) came to 0.000605 s⁻¹ and the association rate constant (kon) amounted to 434000 M⁻¹ s⁻¹. In [2], the IC50, neutralization of hIL-31-induced signaling in IL-31RA/OSMR dimerization assay came out at 7.98 ng/mL and the rel. IC50 (IC50, BMS-981164/IC50, test sample) came to 1.49.

B4: PRO1517 (scFv, V domains shown)
VH: EVQLVESGGGLVQPGGSLRLSCAASGFSSSSAHYMCWVRQAPGKGLEWIGCIYAGSRGSTYYASWAKGRFTISRDNSKNTVYLQMNSLRAEDTAVYYCARAAFVNRGVSWIWPYYFSLWGQGTLVTVSS
VL: DIQMTQSPSSLSASVGDRVTITCQASEDIESYLAWYQQKPGKAPKLLIYRASTLAYGVPSRFSGSGSGTDFTLTISSLQPEDFATYYCLGSSYSTGSNIFGTGTKVTVLG
In [5], B4 yielded a dissociation constant Kd of 0.0946 nM, a koff of 0.000182 s⁻¹ and an association rate constant (kon) of 1.92e+06 M⁻¹ s⁻¹. In the test with Human IL-4R-Fc (human), this molecule gave a Kd of 0.0055 nM, an off-rate constant (koff) of 1.95e-05 s⁻¹ and an on-rate (kon) of 3.55e+06 M⁻¹ s⁻¹. Moreover, in test [6], the Kd was 0.681 nM, the dissociation rate constant (koff) worked out at 0.000404 s⁻¹ and the on-rate constant (kon) came to 594000 M⁻¹ s⁻¹. In addition, in [7], the Kd turned out to be 0.392 nM, the off-rate (koff) came out at 0.00105 s⁻¹ and the kon was determined as 2.67e+06 M⁻¹ s⁻¹. For the same molecule, in test [8], the IC50, neutralization of hIL-4-induced signaling, stat-6 reporter gene assay turned out to be 1.44 ng/mL; the IC50, neutralization of hIL-13-induced signaling, stat-6 reporter gene assay was 1.83 ng/mL; the rel. IC50 (IC50, dupilumab/IC50, test sample), hIL-4 was 0.39; the rel. IC50 (IC50, dupilumab/IC50, test sample), hIL-13 was 0.57.

B5: PRO1899 (scFv, V domains shown)
VH: EVQLVESGGGRVQPGGSLRLSCAASGFSSSSAHYMCWVRQAPGKGLEWIGCIYAGSRGSTYYASWAKGRFTISKASSTTVYLQMNSLRAEDTATYYCARAAFVNRGVSWIWPYYFSLWGQGTQVTVSS
VL: B4 VL
In test [8], B5 gave an IC50, neutralization of hIL-4 induced signaling, stat-6 reporter gene assay of 0.71 ng/mL; an IC50, neutralization of hIL-13 induced signaling, stat-6 reporter gene assay of 0.56 ng/mL; a rel. IC50 (IC50, dupilumab/IC50, test sample), hIL-4 of 1.61; a rel. IC50 (IC50, dupilumab/IC50, test sample), hIL-13 of 1.8.

B6: PRO1898 (scFv, V domains shown)
VH: B4 VH
VL: B4 VL with S14R, T69R
In test [8], B6 returned an IC50, neutralization of hIL-4 induced signaling, stat-6 reporter gene assay of 1 ng/mL; an IC50, neutralization of hIL-13 induced signaling, stat-6 reporter gene assay of 1.15 ng/mL; a rel. IC50 (IC50, dupilumab/IC50, test sample), hIL-4 of 1.15; a rel. IC50 (IC50, dupilumab/IC50, test sample), hIL-13 of 0.87.

B7: BMS-981164 (antibody, from another filing, V domains shown)
VH: QVQLVQSGAEVKKPGASVKVSCKASGYTLTRYWMQWVRQAPGQGLEWMGAIYPGDGDTRYSQKFQGRVTLTADKSTSTAYMELSSLRSEDTAVYYCAFPDGYYAAPYGMDYWGQGTLVTVSS
VL: DIQMTQSPSSLSASVGDRVTITCRASGNIHNYLAWYQQKPGKVPKLLIYNAKTLADGVPSRFSGSRSETQYSLTISSLQPEDVATYYCQHFWSTPWTFGQGTKVEIKR
B7: in test [9], the IC50, cynomolgus IL-31-induced IL-31RA/OSMR dimerization (RLU) [table under the graph] was determined as 0.178 nM. For the same molecule, the IC50 (read off the curve), human IL-31-induced IL-31RA/OSMR dimerization in test [10] is 0.07 nM; in [11] it was 0.2 nM; in [12] it was 0.1 nM; in [13], 0.06 nM.
